The values that follow come from PMC10415118.

Holding throughout (assay): purified protein
Substrate in data set [1]: Nc1ccn([C@H]2C[C@H](O)[C@@H](CO)O2)c(=O)n1
The following applies: 30 °C, dC 0.05-5 mM.

Substrate in data set [2]: Nc1ccn([C@@H]2O[C@H](CO)[C@@H](O)[C@H]2O)c(=O)n1
The conditions noted are these: 30 °C, C 0.1-10 mM.

Substrate in data set [3]: Cc1cn([C@@H]2O[C@H](CO)[C@@H](O)[C@H]2O)c(=O)nc1N
The conditions noted are these: 30 °C, 5mC 1-200 mM.

Substrate in data set [4]: Cc1cn([C@H]2C[C@H](O)[C@@H](CO)O2)c(=O)nc1N
The conditions noted are these: 30 °C, 5mdC 1-100 mM.

Substrate in data set [5]: CO[C@@H]1[C@H](O)[C@@H](CO)O[C@H]1n1ccc(N)nc1=O
The conditions noted are these: 30 °C, 2OmC 1-200 mM.

B1: CDA (AtCDA; CYTIDINE DEAMINASE; CDA-Strep) (Arabidopsis thaliana) (protein)
chain: MDKPSFVIQSKEAESAAKQLGVSVIQLLPSLVKPAQSYARTPISKFNVAVVGLGSSGRIFLGVNVEFPNLPLHHSIHAEQFLVTNLTLNGERHLNFFAVSAAPCGHCRQFLQEIRDAPEIKILITDPNNSADSDSAADSDGFLRLGSFLPHRFGPDDLLGKDHPLLLESHDNHLKISDLDSICNGNTDSSADLKQTALAAANRSYAPYSLCPSGVSLVDCDGKVYRGWYMESAAYNPSMGPVQAALVDYVANGGGGGYERIVGAVLVEKEDAVVRQEHTARLLLETISPKCEFKVFHCYEA
In the case of B1, the Michaelis constant (Km) is 0.28 ± 0.05 mM in “purified protein [1]”; 0.82 ± 0.15 mM in “purified protein [2]”; 8.05 ± 0.96 mM in “purified protein [3]”; 3.92 ± 0.61 mM in “purified protein [4]”; 8.34 ± 1.12 mM in the data set “purified protein [5]”. Besides, the kcat in “purified protein [1]” worked out at 18.1 ± 0.66 s⁻¹; in the data set “purified protein [2]”, 29.4 ± 1.65 s⁻¹; in “purified protein [3]” it was 35.4 ± 1.04 s⁻¹; in the data set “purified protein [4]”, 54.1 ± 1.68 s⁻¹; in “purified protein [5]” it was 35.5 ± 1.12 s⁻¹. Also, the kcat/Km in “purified protein [1]” worked out at 64800 M⁻¹ s⁻¹; in the data set “purified protein [2]”, 35900 M⁻¹ s⁻¹; in the data set “purified protein [3]”, 4400 M⁻¹ s⁻¹; in “purified protein [4]” it was 13800 M⁻¹ s⁻¹; in “purified protein [5]” it was 4300 M⁻¹ s⁻¹.

The term Km denotes the substrate concentration at which the rate is half of its maximum. Broadly, the kcat is the maximal rate divided by the concentration of active sites. In general, kcat/Km refers to the turnover number divided by the Michaelis constant.
